Assay results from IntAct's records for PubMed 16263329.

B1: Anti-sigma-F factor antagonist RsfB (Mycobacterium tuberculosis (strain ATCC 25618 / P9WGE1 (parent)
chain: MSAPDSITVTVADHNGVAVLSIGGEIDLITAAALEEAIGEVVADNPTALVIDLSAVEFLGSVGLKILAATSEKIGQSVKFGVVARGSVTRRPIHLMGLDKTFRLFSTLHDALTGVRGGRIDR
partner: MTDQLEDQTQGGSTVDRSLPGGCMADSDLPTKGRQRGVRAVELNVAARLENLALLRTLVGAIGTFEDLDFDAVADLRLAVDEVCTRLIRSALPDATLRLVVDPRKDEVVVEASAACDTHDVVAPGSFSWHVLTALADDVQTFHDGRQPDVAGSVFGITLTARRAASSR

Variants of: B1
Details: with rsbw_myctu rsbW
For S61A, the “effect of a mutation on the interaction” value was “decreasing interaction”.
